How the values were obtained:
human serum albumin [1] = assay: SPR; fit kinetic; antibody as scFv; antigen as not_told; on the surface: target; avidity monovalent
macaque serum albumin [2] = assay: as above
rat serum albumin = assay: as above
human serum albumin [3] = assay: ELISA; fit steady_state; antibody as scFv; antigen as not_told; on the surface: target; avidity monovalent
macaque serum albumin [4] = assay: as above

Substance: SON-1210
- Kd (human serum albumin [1]; pH 5.8): 500 nM
- Kd (human serum albumin [1]; pH 7.4): 800 nM
- Kd (macaque serum albumin [2]; pH 5.8): 900 nM
- Kd (macaque serum albumin [2]; pH 7.4): 2300 ± 400 nM
- Kd (rat serum albumin; pH 5.8): 5400 ± 1920 nM
- Kd (rat serum albumin; pH 7.4): 12900 ± 5100 nM
- Kd (human serum albumin [3]; pH 6.2): 80 ± 10 nM
- Kd (human serum albumin [3]; pH 7.4): 60 ± 30 nM
- Kd (macaque serum albumin [4]; pH 6.2): 600 ± 300 nM
- Kd (macaque serum albumin [4]; pH 7.4): 400 ± 200 nM
